According to patent US20250011363A1, “OPTIMIZED SHORTENED PEPTIDE THAT BINDS TO ACETYLCHOLINE RECEPTOR, AND USE THEREOF” (SKINMED CO., LTD., priority 2021, published 2025):

Each substance was assayed against acetylcholine receptor (Homo sapiens, UniProt P02708) (assay: SPR binding affinity (RU) of optimized 5mer/6mer/7mer peptides, Examples 6-7). Settings: SPR, Resonance Units; 5mer Bottom sequence (bottom combinations); peptides tested at 10 μM.
Chain of acetylcholine receptor (P02708 21-457): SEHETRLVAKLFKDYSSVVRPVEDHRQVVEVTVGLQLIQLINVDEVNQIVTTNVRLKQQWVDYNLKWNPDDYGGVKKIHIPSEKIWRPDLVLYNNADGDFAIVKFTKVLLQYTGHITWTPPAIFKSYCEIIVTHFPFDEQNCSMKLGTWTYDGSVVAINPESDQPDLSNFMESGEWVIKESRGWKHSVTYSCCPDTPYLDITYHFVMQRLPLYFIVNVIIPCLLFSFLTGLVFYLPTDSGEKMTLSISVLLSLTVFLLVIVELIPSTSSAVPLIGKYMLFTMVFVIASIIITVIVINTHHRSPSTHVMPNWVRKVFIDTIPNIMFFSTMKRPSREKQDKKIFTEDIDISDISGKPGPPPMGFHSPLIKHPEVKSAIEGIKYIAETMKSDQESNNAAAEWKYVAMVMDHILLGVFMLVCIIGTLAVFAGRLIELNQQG
Procedure: Based on the frequencies of occurrence of the top 7 amino acids from Table 7 in Example 5, 600 peptides comprising these amino acids (top combinations) and those comprising the 13 less frequently occurring amino acids (bottom combinations) were synthesized for each series of 5mer, 6mer-1, and 6mer-2. The binding affinity of each sequence for the acetylcholine receptor was measured using Surface Plasmon Resonance (SPR) analysis method. The peptides were tested at a concentration of 10 μM. Additionally, the average binding affinities of the top and bottom combinations in each series are depicted in FIGS. 5-7.
Representative peptides identified in Example 6, two in each library, including 5mers (73, 311) and 6mers-1 (43, 210) and 6mers-2 (136, 233), were compared with the pre-optimized 6mer, 5mer-ND, and Synake.
In the case of 5mer-964 (KYTDR), the Binding affinity is reported as 22 Ru.
In the case of 5mer-965 (KMEIR), the Binding affinity is reported as 30 Ru.
For 5mer-966 (RPSAK), the Binding affinity was 32 Ru.
Substance 5mer-967 (KKTHK) has a Binding affinity of 26 Ru.
5mer-968 (RIPHR) showed a Binding affinity of 11 Ru.
5mer-969 (RNTVR) gave a Binding affinity of 27 Ru.
5mer-970 (KYMNR) showed a Binding affinity of 33 Ru.
Substance 5mer-971 (KMTGK) has a Binding affinity of 12 Ru.
5mer-972 (KYAKR) showed a Binding affinity of 14 Ru.
In the case of 5mer-973 (RYWAR), the Binding affinity is reported as 12 Ru.
In the case of 5mer-974 (RHMMR), the Binding affinity is reported as 26 Ru.
For 5mer-975 (RFAHK), the Binding affinity was 18 Ru.
In the case of 5mer-976 (RETNR), the Binding affinity is reported as 16 Ru.
With 5mer-977 (KNMIR) the Binding affinity was 16 Ru.
5mer-978 (RYDHK) showed a Binding affinity of 30 Ru.
For 5mer-979 (RHHMK), the Binding affinity was 23 Ru.
Work on 5mer-980 (RKPHR) yielded a Binding affinity of 33 Ru.
With 5mer-981 (KNDKK) the Binding affinity was 33 Ru.
5mer-982 (KFMHK) was tested, and the Binding affinity was 12 Ru.
For 5mer-983 (RTTGR), the Binding affinity was 23 Ru.
5mer-984 (KNAHK) showed a Binding affinity of 11 Ru.
Substance 5mer-985 (RDPKR) has a Binding affinity of 17 Ru.
Substance 5mer-986 (RPMDK) has a Binding affinity of 12 Ru.
5mer-987 (RAHWR) gave a Binding affinity of 22 Ru.
Substance 5mer-988 (RCKWR) has a Binding affinity of 17 Ru.
5mer-989 (RCTAR) was tested, and the Binding affinity was 31 Ru.
In the case of 5mer-990 (KEEPK), the Binding affinity is reported as 12 Ru.
For 5mer-991 (RPEFR), the Binding affinity was 24 Ru.
5mer-992 (RNDKK) was tested, and the Binding affinity was 15 Ru.
5mer-993 (KEKFR) was tested, and the Binding affinity was 27 Ru.
With 5mer-994 (KAWVR) the Binding affinity was 26 Ru.
For 5mer-995 (KFTDK), the Binding affinity was 18 Ru.
5mer-996 (RMTKK) was tested, and the Binding affinity was 32 Ru.
With 5mer-997 (RYPHR) the Binding affinity was 30 Ru.
5mer-998 (RCTAK) gave a Binding affinity of 18 Ru.
For 5mer-999 (KTKFK), the Binding affinity was 19 Ru.
5mer-1000 (KHCWR) was tested, and the Binding affinity was 20 Ru.
In the case of 5mer-1001 (KPCGK), the Binding affinity is reported as 33 Ru.
5mer-1002 (KEDNK) gave a Binding affinity of 12 Ru.
In the case of 5mer-1003 (RMTVR), the Binding affinity is reported as 11 Ru.
For 5mer-1004 (RDADR), the Binding affinity was 30 Ru.
With 5mer-1005 (RTHGR) the Binding affinity was 30 Ru.
In the case of 5mer-1006 (KEPER), the Binding affinity is reported as 17 Ru.
Work on 5mer-1007 (RDMMR) yielded a Binding affinity of 30 Ru.
5mer-1008 (KDSNR) showed a Binding affinity of 11 Ru.
Work on 5mer-1009 (KMCAK) yielded a Binding affinity of 29 Ru.
In the case of 5mer-1010 (KCDNK), the Binding affinity is reported as 16 Ru.
5mer-1011 (KTDMK) showed a Binding affinity of 25 Ru.
5mer-1012 (RHKVR) was tested, and the Binding affinity was 22 Ru.
For 5mer-1013 (KCCVK), the Binding affinity was 19 Ru.
In the case of 5mer-1014 (RKNKR), the Binding affinity is reported as 23 Ru.
In the case of 5mer-1015 (RCWMK), the Binding affinity is reported as 30 Ru.
5mer-1016 (KYTMR) gave a Binding affinity of 28 Ru.
In the case of 5mer-1017 (RCTWK), the Binding affinity is reported as 24 Ru.
5mer-1018 (KFWAK) gave a Binding affinity of 20 Ru.
Work on 5mer-1019 (RFKFK) yielded a Binding affinity of 28 Ru.
In the case of 5mer-1020 (KCKVK), the Binding affinity is reported as 12 Ru.
For 5mer-1021 (KITHK), the Binding affinity was 26 Ru.
5mer-1022 (KIADK) was tested, and the Binding affinity was 29 Ru.
Substance 5mer-1023 (RYCKK) has a Binding affinity of 13 Ru.
For 5mer-1024 (KIDNK), the Binding affinity was 26 Ru.
Substance 5mer-1025 (RHKWK) has a Binding affinity of 25 Ru.
5mer-1026 (RNAVR) gave a Binding affinity of 20 Ru.
5mer-1027 (KNTNR) was tested, and the Binding affinity was 28 Ru.
Work on 5mer-1028 (RMAMR) yielded a Binding affinity of 28 Ru.
With 5mer-1029 (KADIK) the Binding affinity was 25 Ru.
Substance 5mer-1030 (RISDK) has a Binding affinity of 18 Ru.
With 5mer-1031 (RKEER) the Binding affinity was 13 Ru.
With 5mer-1032 (RHHMR) the Binding affinity was 23 Ru.
With 5mer-1033 (REWDK) the Binding affinity was 28 Ru.
5mer-1034 (RFAKK) gave a Binding affinity of 14 Ru.
In the case of 5mer-1035 (KEHVR), the Binding affinity is reported as 19 Ru.
Work on 5mer-1036 (KTHMK) yielded a Binding affinity of 23 Ru.
In the case of 5mer-1037 (KKSFR), the Binding affinity is reported as 28 Ru.
For 5mer-1038 (KCCKR), the Binding affinity was 17 Ru.
With 5mer-1039 (KKDVK) the Binding affinity was 32 Ru.
Work on 5mer-1040 (KTPWR) yielded a Binding affinity of 17 Ru.
Work on 5mer-1041 (RDWFK) yielded a Binding affinity of 27 Ru.
5mer-1042 (RCCAK) gave a Binding affinity of 28 Ru.
5mer-1043 (KFEMK) was tested, and the Binding affinity was 15 Ru.
5mer-1044 (RDCFK) gave a Binding affinity of 22 Ru.
Substance 5mer-1045 (KMDEK) has a Binding affinity of 22 Ru.
5mer-1046 (KHTMR) gave a Binding affinity of 19 Ru.
5mer-1047 (KAHMR) gave a Binding affinity of 23 Ru.
Substance 5mer-1048 (KYDNK) has a Binding affinity of 12 Ru.
5mer-1049 (KPPGR) was tested, and the Binding affinity was 29 Ru.
With 5mer-1050 (KPEDR) the Binding affinity was 31 Ru.
5mer-1051 (RYAHR) gave a Binding affinity of 28 Ru.
In the case of 5mer-1052 (RNDWR), the Binding affinity is reported as 17 Ru.
5mer-1053 (KHEHK) showed a Binding affinity of 27 Ru.
5mer-1054 (RNKVR) showed a Binding affinity of 21 Ru.
Substance 5mer-1055 (KHHEK) has a Binding affinity of 15 Ru.
With 5mer-1056 (RCTPK) the Binding affinity was 11 Ru.
In the case of 5mer-1057 (RFDPK), the Binding affinity is reported as 13 Ru.
Substance 5mer-1058 (KIPWR) has a Binding affinity of 25 Ru.
5mer-1059 (RMAGR) was tested, and the Binding affinity was 29 Ru.
5mer-1060 (KTHIK) gave a Binding affinity of 29 Ru.
With 5mer-1061 (KDSFR) the Binding affinity was 24 Ru.
For 5mer-1062 (RAPWR), the Binding affinity was 24 Ru.
For 5mer-1063 (RPHVK), the Binding affinity was 20 Ru.
5mer-1064 (KCMKR) showed a Binding affinity of 20 Ru.
In the case of 5mer-1065 (KNPIR), the Binding affinity is reported as 18 Ru.
Work on 5mer-1066 (RFWVK) yielded a Binding affinity of 25 Ru.
5mer-1067 (KHENK) gave a Binding affinity of 23 Ru.
In the case of 5mer-1068 (RMHKK), the Binding affinity is reported as 11 Ru.
5mer-1069 (RPSFK) showed a Binding affinity of 31 Ru.
Work on 5mer-1070 (RETGK) yielded a Binding affinity of 26 Ru.
5mer-1071 (RYEGR) gave a Binding affinity of 16 Ru.
In the case of 5mer-1072 (KDWPK), the Binding affinity is reported as 32 Ru.
5mer-1073 (RDEAK) gave a Binding affinity of 29 Ru.
Substance 5mer-1074 (RPCPR) has a Binding affinity of 17 Ru.
With 5mer-1075 (RKHIK) the Binding affinity was 26 Ru.
Work on 5mer-1076 (KFEKK) yielded a Binding affinity of 21 Ru.
For 5mer-1077 (KADMK), the Binding affinity was 12 Ru.
For 5mer-1078 (KEAWK), the Binding affinity was 19 Ru.
Substance 5mer-1079 (KYTGR) has a Binding affinity of 31 Ru.
With 5mer-1080 (RYTHK) the Binding affinity was 25 Ru.
5mer-1081 (RPNVR) was tested, and the Binding affinity was 13 Ru.
5mer-1082 (RACFR) was tested, and the Binding affinity was 11 Ru.
With 5mer-1083 (KFSVR) the Binding affinity was 31 Ru.
With 5mer-1084 (RTHDR) the Binding affinity was 21 Ru.
5mer-1085 (RTTER) gave a Binding affinity of 14 Ru.
With 5mer-1086 (RIWDR) the Binding affinity was 19 Ru.
5mer-1087 (KKKKR) gave a Binding affinity of 11 Ru.
For 5mer-1088 (KAKKK), the Binding affinity was 16 Ru.
5mer-1089 (KTHHR) was tested, and the Binding affinity was 29 Ru.
In the case of 5mer-1090 (KISGK), the Binding affinity is reported as 31 Ru.
In the case of 5mer-1091 (KTEHR), the Binding affinity is reported as 29 Ru.
For 5mer-1092 (KPMVK), the Binding affinity was 12 Ru.
For 5mer-1093 (REEDK), the Binding affinity was 32 Ru.
Work on 5mer-1094 (RYSMK) yielded a Binding affinity of 15 Ru.
Work on 5mer-1095 (KAEKR) yielded a Binding affinity of 27 Ru.
In the case of 5mer-1096 (RPTDK), the Binding affinity is reported as 15 Ru.
5mer-1097 (KPDIR) showed a Binding affinity of 28 Ru.
Work on 5mer-1098 (RFHGR) yielded a Binding affinity of 31 Ru.
5mer-1099 (RATAR) was tested, and the Binding affinity was 14 Ru.
With 5mer-1100 (RPWKR) the Binding affinity was 24 Ru.
Substance 5mer-1101 (KYKNR) has a Binding affinity of 11 Ru.
Substance 5mer-1102 (KTHKK) has a Binding affinity of 20 Ru.
5mer-1103 (KKSHR) showed a Binding affinity of 18 Ru.
5mer-1104 (RETHK) gave a Binding affinity of 12 Ru.
For 5mer-1105 (RPTKR), the Binding affinity was 33 Ru.
In the case of 5mer-1106 (RYTER), the Binding affinity is reported as 18 Ru.
For 5mer-1107 (RPWHK), the Binding affinity was 21 Ru.
Work on 5mer-1108 (RNPIR) yielded a Binding affinity of 19 Ru.
5mer-1109 (KCHPK) was tested, and the Binding affinity was 14 Ru.
5mer-1110 (RMHMK) showed a Binding affinity of 13 Ru.
In the case of 5mer-1111 (KAEHK), the Binding affinity is reported as 12 Ru.

Same assay, conditions: SPR; peptides tested at 10 μM; 5mer Bottom sequence
With 5mer-1112 (RTTFK) the Binding affinity was 29 Ru.
5mer-1113 (RHMER) was tested, and the Binding affinity was 19 Ru.
With 5mer-1114 (RKTFR) the Binding affinity was 28 Ru.
Substance 5mer-1115 (KEPEK) has a Binding affinity of 27 Ru.
Work on 5mer-1116 (KECFR) yielded a Binding affinity of 24 Ru.
5mer-1117 (RHKIR) was tested, and the Binding affinity was 11 Ru.
Substance 5mer-1118 (RMDAR) has a Binding affinity of 28 Ru.
5mer-1119 (KMNIK) was tested, and the Binding affinity was 19 Ru.
In the case of 5mer-1120 (RPPDR), the Binding affinity is reported as 33 Ru.
5mer-1121 (RFKVK) showed a Binding affinity of 29 Ru.
5mer-1122 (RNTDR) gave a Binding affinity of 14 Ru.
For 5mer-1123 (KYEKR), the Binding affinity was 24 Ru.
5mer-1124 (KKPVK) was tested, and the Binding affinity was 30 Ru.
Substance 5mer-1125 (RYPFK) has a Binding affinity of 29 Ru.
Substance 5mer-1126 (KPTHK) has a Binding affinity of 26 Ru.
Substance 5mer-1127 (RIADR) has a Binding affinity of 16 Ru.
